Here are results for two molecules from patent US20210079083A1 (INSTITUTE FOR BASIC SCIENCE, published 2021).

Numbering of substitutions follows the chain as printed.

Experiment [1] concerns the target T1, Human Angiopoietin-2 full-length (hAng2) (human, UniProt O15123 19-496).
T1 construct: The cell assays used full-length hAng2 from R&D Systems; also called human Ang2; A2
T1 sequence: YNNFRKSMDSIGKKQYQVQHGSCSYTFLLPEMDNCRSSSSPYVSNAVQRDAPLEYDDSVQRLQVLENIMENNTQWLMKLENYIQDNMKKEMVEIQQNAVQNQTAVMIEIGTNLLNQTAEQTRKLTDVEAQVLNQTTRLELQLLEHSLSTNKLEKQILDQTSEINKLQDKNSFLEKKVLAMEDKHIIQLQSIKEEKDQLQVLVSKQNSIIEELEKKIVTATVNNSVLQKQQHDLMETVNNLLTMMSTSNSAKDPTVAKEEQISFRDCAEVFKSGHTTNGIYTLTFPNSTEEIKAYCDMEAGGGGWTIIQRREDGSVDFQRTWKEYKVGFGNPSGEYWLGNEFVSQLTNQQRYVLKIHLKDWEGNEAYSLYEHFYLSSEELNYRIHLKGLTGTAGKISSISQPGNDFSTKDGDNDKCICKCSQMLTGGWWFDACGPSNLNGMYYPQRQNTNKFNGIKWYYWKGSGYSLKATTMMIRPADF
The experiment can be described thus: BLI (Octet), antibody fixed on AR2G sensor, hAng2 3.125-50 nM in solution, 1:1 global fit. As for the experimental part: The affinity of humanized anti-Ang2 antibody against hAng2 was measured using Octet system (ForteBio). Specifically, buffer and samples were measured in total 200 μl/well using Black 96-well plates (96 well F-type black plates, Greiner). […] After the hydration, humanized anti-Ang2 antibody was diluted in 10 mM sodium acetate, pH 6.0 buffer at a concentration of 10 μg/ml, fixed on AR2G biosensor, and blocked with 1M ethanolamine. The recombinant hAng2 was diluted to 50, 25, 12.5, 6.25, 3.125, and 0 nM with 1× kinetic buffer, and subjected to association for 300 sec and dissociation for 900 sec.
The affinities of humanized 2C8 antibodies to hAng2 were in Table 15.
A general note: BLI is a label-free optical method that tracks binding on a fibre tip over time.

The target of experiment [2] is T2, mouse Ang2 (mAng2) (mouse, UniProt O35608 19-496, limits assumed).
T2 construct: Coated on the ELISA plate; also called recombinant mAng2
T2 sequence (looked up): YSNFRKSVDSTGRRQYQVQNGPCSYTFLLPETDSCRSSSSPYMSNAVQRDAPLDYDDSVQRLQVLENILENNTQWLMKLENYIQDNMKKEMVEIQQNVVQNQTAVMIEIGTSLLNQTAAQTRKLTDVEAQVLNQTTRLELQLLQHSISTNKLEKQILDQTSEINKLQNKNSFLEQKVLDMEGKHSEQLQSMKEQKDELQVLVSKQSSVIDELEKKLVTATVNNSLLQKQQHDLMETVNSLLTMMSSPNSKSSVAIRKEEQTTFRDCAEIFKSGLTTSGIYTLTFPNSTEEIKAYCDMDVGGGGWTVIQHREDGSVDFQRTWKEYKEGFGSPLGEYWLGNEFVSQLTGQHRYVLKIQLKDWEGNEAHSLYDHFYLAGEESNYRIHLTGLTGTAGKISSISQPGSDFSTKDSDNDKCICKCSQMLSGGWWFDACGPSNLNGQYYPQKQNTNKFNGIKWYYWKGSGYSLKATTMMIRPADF
The experiment in a line: ELISA, mAng2 coated at 20 ng per well, detection with anti-human IgG (Fab)-HRP. As for the experimental part: FIG. 8. EC₅₀ values of anti-Ang2 antibodies against mouse Ang2 by ELISA. The binding affinities of humanized anti-Ang2 antibodies for mouse Ang2 (mAng2) were measured by analyzing EC₅₀ with ELISA. The recombinant mAng2 was coated and incubated with serially diluted anti-Ang2 antibodies, 4B9H11 and 2C8H11. Next, the plate was reacted with anti-human IgG (Fab)-HRP secondary antibody. The plate was treated with TMB solution and absorbance was measured at 450 nm. EC₅₀ value was analyzed using PerkinElmer's WorkOut 2.5 program.
The affinity of humanized antibodies for mouse Ang2 (mAng2) was analyzed by ELISA. Specifically, mAng2 was diluted in 30 μl of a coating buffer (0.1 M sodium carbonate buffer) at 20 ng per well in a half 96-well plate (Corning 3690) and incubated overnight at 4° C. After washing with TBS-T solution for 3 times, the well plate was blocked with 3% skim milk at room temperature for 1 hr and then washed again. 2C8H11 and 4B9H11 were serially diluted from […] to 300 ng/ml. After loading 30 μl of the diluted ant-Ang2 antibodies into wells, the well plate was incubated at room temperature for 2 hrs. […] After developing for 5 min, the plate was treated with 1N sulfuric acid to stop the reaction, and absorbance was measured at 450 nm. Based on the measured OD value, the EC₅₀ value was analyzed using PerkinElmer's WorkOut 2.5 program.
(ELISA stands for enzyme-linked immunosorbent assay.)

B1: humanized anti-Ang2 antibody 2C8H11 (antibody, V domains shown)
VH: QVQLVQSGAEVKKPGASVKVSCKASGYTFTSYWMHWVRQAPGQGLEWMGMIDPSDSETRLNQKFKDRVTMTRDTSTSTVYMELSSLRSEDTAVYYCARRFYYGSDWYFDVWGQGTLVTVSS
VL: DIQLTQSPSFLSASVGDRVTITCKASQDVGTAVAWYQQKPGKAPKLLIYWASTRHTGVPSRFSGSGSGTEFTLTISSLQPEDFATYYCQQYSSYPLTFGQGTKVEIK
notes: Full-length human IgG1
One may read the Kd as the equilibrium constant for the complex coming apart. A low value points to a tighter complex. The koff is the first-order rate constant of dissociation. As usually defined, the kon is the rate constant with which the complex forms. For orientation: EC50 means the concentration that produces a half-maximal response. In experiment [1], B1 displayed a dissociation constant (Kd) of 212 pM, a koff of 1.4e-05 s⁻¹ and an on-rate constant (kon) of 66000 M⁻¹ s⁻¹. Moreover, the EC50 in experiment [2] was determined as 97 µg/mL.

B2: humanized anti-Ang2 antibody 4B9H11 (antibody, V domains shown)
VH: QVQLVESGGGLVKPGGSLRLSCAASGFTFSDYYMYWIRQAPGKGLEWVSTISVGGSFTYYPDSVKGRFTISRDNAKNSLYLQMNSLRAEDTAVYYCARDWGLRPWFVYWGQGTLVTVSS
VL: B1 VL with L4M, F10S, G30S, E70D, Y91H, S92Y, Y94T, L96P
notes: Full-length human IgG1
Consider B2, for which, in experiment [1], the equilibrium dissociation constant (Kd) worked out at 17.1 pM, the off-rate constant (koff) is 1.58e-06 s⁻¹ and the kon stood at 92900 M⁻¹ s⁻¹. In addition, the EC50 in experiment [2] was determined as 105 µg/mL.
